Results on one molecule are retold here after US20260275319A1, “ARCHAEAL PEPTIDE RECOMBINASE – A NOVEL PEPTIDE LIGATING ENZYME” (MAX-PLANCK-GESELLSCHAFT ZUR FÖRDERUNG DER WISSENSCHAFTEN …, priority 2019, published 2026).

The assay has as its system (15)KDPGA(10F) and PGA(10) peptides. In words: M. jannaschii Adriase peptide ligation rates with fluorescent peptides (SDS-PAGE/UV). The format is biochemical. As for the experimental part: To test this assumption, the Adriase reaction was performed with (X1)KDPGA(X2) peptides bearing a C-terminal fluorophore (SEQ ID NOs: 370-371 and 418; see also Table 6) and unmodified PGA(X3) synthetic peptides (SEQ ID NOs: 373-375; see Table 7) as model substrates. The recombination reaction is expected to result in the formation of a (X1)KDPGA(X3) fusion peptide, releasing the respective C-terminal peptides PGA(X2)(SEQ ID NOs: 414) with the C-terminal fluorescent label. The latter can be visualized in order to track the progress of the reaction.
For this purpose, ligations were performed and visualized as described above, except for the use of just 6 nM Adriase and the increasing concentrations of (15)KDPGA(10F) (SEQ ID NO: 418) and PGA(10)(SEQ ID NO: 374) peptides (2.5/5/10/20/40/80/160 µM of each peptide of the peptide pairs). The band intensity of the respectively fluorescently labeled PGA(10F)-peptide (see SEQ ID NO: 414), which is released by the ligation reaction was quantified using ImageJ v1.50i and subtracted from background signal in control reactions without PGA(10) peptide.
To determine how the reaction is influenced by recognition motif characteristics, ligation rates for other substrates were determined in the same manner, except for the use of 20 μM of the indicated substrates (see also Tables 6 and 7) and varying concentrations of Adriase (6/30/150/750 nM). […] In combination with the above experiments (FIGS. 9A and B), they provide the means to design substrates for efficient Adriase-mediated ligations.

B1: M. jannaschii Adriase: Methanocaldococcus jannaschii Adriase (MJ_0548) with C-terminal His6-tag (protein)
chain: SLIICYYGKNGAVIGGDRRQIFFRGSEENRKILEEKLYSGEIKSEEELYKLAEKLNIKIIIEDDREKVRKISDSVVCGEVRSLGIDAKRRRVYATKGKCAIVDILNDTVTNQTIKEGFGIVVLGNRFLKKKAEEELKRTAKLFPMMPIQQIEDAIKEIFEKLKWHPTVSKEYDIYSVNKYEKNFEEVIKKDIESLFKYREQLRKQLIDFGKVMSIVNKIVKNGEIGVIKDGKLHLYDDYIAIDKIDPNPKVFKVVDVEGNFKDGDIVVIENGDMKIKGTNEKVTTKYIIIHKGSHHHHHH
modifications: C-terminal His6-tag; M. jannaschii Adriase with C-terminal His-tag
Turning to B1, the maximum rate (6 nM Adriase, 85° C., equimolar substrates 2.5-160 μM, Michaelis-Menten model, single experiment) was ~ 1.4 ligations per enzyme and second. Besides, the “ligation of (X1)KDPGA(X2) and PGA(X3) peptides” value (20 μM substrates, 6/30/150/750 nM Adriase, X1≥5 and X2=X3≥10) is recorded as “efficiently ligates”. Moreover, the “substrate concentration at half maximal reaction speed” value (each substrate, 6 nM Adriase, 85° C., Michaelis-Menten model) was 23 µM.
